# Experimental data as given in article PMC10773802, “Electrochemical aptasensor fabricated by anchoring recognition aptamers and immobilizing redox probes on bipolar silica nanochannel array for reagentless detection of carbohydrate antigen 15-3”.
# B1: CA15-3 aptamer (amino-modified) (ssDNA)
# DNA: CTTCCTCCCTGAAGTGAATATGACAGATCACAACTTCCCTCCTTC
# modifications: 5'-NH2
# Target: carbohydrate antigen 15-3 (CA15-3) (UniProt P15941 24-1097)
# Assay: electrochemical aptasensor (DPV, CV, EIS); aptamer immobilized on bp-SNA/ITO with Co(bpy)3 2+ probe, BSA-blocked; linear 0.001-500 U/mL, LOD 0.13 mU/mL (not a Kd); 0.01 M PBS (sodium phosphate), pH 7.4; CA15-3 incubation 80 min at 4 °C; BSA-blocked electrode (0.1 wt%)
# Conditions: protein: commercial
# carbohydrate antigen 15-3 (CA15-3), sequence (P15941 24-1097): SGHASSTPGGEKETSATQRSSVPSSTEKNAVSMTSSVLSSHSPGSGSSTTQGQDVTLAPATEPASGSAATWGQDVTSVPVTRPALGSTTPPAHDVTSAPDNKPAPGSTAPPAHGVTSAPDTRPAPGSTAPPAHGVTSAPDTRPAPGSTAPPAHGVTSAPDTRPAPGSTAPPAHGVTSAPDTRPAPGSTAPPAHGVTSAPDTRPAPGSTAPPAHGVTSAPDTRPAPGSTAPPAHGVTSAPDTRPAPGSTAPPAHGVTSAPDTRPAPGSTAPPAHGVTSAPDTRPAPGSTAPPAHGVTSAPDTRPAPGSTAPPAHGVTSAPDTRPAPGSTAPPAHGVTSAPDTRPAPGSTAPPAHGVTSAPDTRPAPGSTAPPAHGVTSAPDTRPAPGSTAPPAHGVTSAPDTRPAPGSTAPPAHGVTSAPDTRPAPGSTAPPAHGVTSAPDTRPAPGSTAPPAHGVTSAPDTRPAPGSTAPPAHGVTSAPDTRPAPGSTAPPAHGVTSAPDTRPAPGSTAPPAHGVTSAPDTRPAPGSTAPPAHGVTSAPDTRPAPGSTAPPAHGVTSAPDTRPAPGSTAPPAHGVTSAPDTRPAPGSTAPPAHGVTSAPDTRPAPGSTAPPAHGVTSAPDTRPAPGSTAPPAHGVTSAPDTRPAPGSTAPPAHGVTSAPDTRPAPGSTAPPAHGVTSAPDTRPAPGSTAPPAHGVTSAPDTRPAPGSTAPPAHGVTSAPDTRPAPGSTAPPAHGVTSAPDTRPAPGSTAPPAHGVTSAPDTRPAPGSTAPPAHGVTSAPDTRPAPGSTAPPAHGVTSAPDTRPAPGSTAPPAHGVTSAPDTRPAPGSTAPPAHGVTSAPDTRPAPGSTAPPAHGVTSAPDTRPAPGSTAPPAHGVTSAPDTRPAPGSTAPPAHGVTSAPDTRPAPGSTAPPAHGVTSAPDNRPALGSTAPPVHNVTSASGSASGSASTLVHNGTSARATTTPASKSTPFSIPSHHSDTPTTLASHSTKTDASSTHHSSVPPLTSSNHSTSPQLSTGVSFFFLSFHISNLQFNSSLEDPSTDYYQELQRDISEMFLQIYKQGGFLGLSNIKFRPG
binder,measurement,value
B1,binding result,binds
